Results: patent US20210388110A1 (published 2021)

B1: H0610-G1dh/none-Hi-Kn010G3/L0141-k0 (antibody, human IgG1, kappa)
heavy: not shown
chain: EPKSSDKTHTCPPCPAPELLGGPSVFLFPPKPKDTLMISRTPEVTCVVVDVSHEDPEVKFNWYVDGVEVHNAKTKPREEQYNSTYRVVSVLTVLHQDWLNGKEYKCKVSNKALPAPIEKTISKAKGQPREPQVCTLPPSRDELTKNQVSLWCLVKGFYPSDIAVEWESNGQPENNYKTTPPVLDSDGSFFLYSKLTVDKSRWQQGNVFSCSVMHEALHNRYTQKSLSLSP
light: DIVMTQSPLSLPVTPGEPASISCRSSQSLVHSNRNTYLHWYQQKPGQAPRLLIYKVSNRFMGVPDRFSGSGSGTDFTLKISRVEAEDVGVYYCGQGTQVPYTFGQGTKLEIKRTVAAPSVFIFPPSDEQLKSGTASVVCLLNNFYPREAKVQWKVDNALQSGNSQESVTEQDSKDSTYSLSSTLTLSKADYEKHKVYACEVTHQGLSSPVTKSFNRGEC
notes: single-arm (one Fab)
B2: H0610-G1dh/none-Hi-Kn010G3/L0143-k0 (antibody, human IgG1, kappa)
heavy: not shown
chain: EPKSSDKTHTCPPCPAPELLGGPSVFLFPPKPKDTLMISRTPEVTCVVVDVSHEDPEVKFNWYVDGVEVHNAKTKPREEQYNSTYRVVSVLTVLHQDWLNGKEYKCKVSNKALPAPIEKTISKAKGQPREPQVCTLPPSRDELTKNQVSLWCLVKGFYPSDIAVEWESNGQPENNYKTTPPVLDSDGSFFLYSKLTVDKSRWQQGNVFSCSVMHEALHNRYTQKSLSLSP
light: DIVMTQSPLSLPVTPGEPASISCRSSQSLVHSNRNTYLHWYQQKPGQAPRLLIYKVSNRFPGVPDRFSGSGSGTDFTLKISRVEAEDVGVYYCGQGTQVPYTFGQGTKLEIKRTVAAPSVFIFPPSDEQLKSGTASVVCLLNNFYPREAKVQWKVDNALQSGNSQESVTEQDSKDSTYSLSSTLTLSKADYEKHKVYACEVTHQGLSSPVTKSFNRGEC
notes: single-arm (one Fab)
B3: H0610-G1dh/none-Hi-Kn010G3/L0145-k0 (antibody, human IgG1, kappa)
heavy: not shown
chain: EPKSSDKTHTCPPCPAPELLGGPSVFLFPPKPKDTLMISRTPEVTCVVVDVSHEDPEVKFNWYVDGVEVHNAKTKPREEQYNSTYRVVSVLTVLHQDWLNGKEYKCKVSNKALPAPIEKTISKAKGQPREPQVCTLPPSRDELTKNQVSLWCLVKGFYPSDIAVEWESNGQPENNYKTTPPVLDSDGSFFLYSKLTVDKSRWQQGNVFSCSVMHEALHNRYTQKSLSLSP
light: DIVMTQSPLSLPVTPGEPASISCRSSQSLVHSNRNTYLHWYQQKPGQAPRLLIYKVSNRFRGVPDRFSGSGSGTDFTLKISRVEAEDVGVYYCGQGTQVPYTFGQGTKLEIKRTVAAPSVFIFPPSDEQLKSGTASVVCLLNNFYPREAKVQWKVDNALQSGNSQESVTEQDSKDSTYSLSSTLTLSKADYEKHKVYACEVTHQGLSSPVTKSFNRGEC
notes: single-arm (one Fab)
B4: H0610-G1dh/none-Hi-Kn010G3/L0148-k0 (antibody, human IgG1, kappa)
heavy: not shown
chain: EPKSSDKTHTCPPCPAPELLGGPSVFLFPPKPKDTLMISRTPEVTCVVVDVSHEDPEVKFNWYVDGVEVHNAKTKPREEQYNSTYRVVSVLTVLHQDWLNGKEYKCKVSNKALPAPIEKTISKAKGQPREPQVCTLPPSRDELTKNQVSLWCLVKGFYPSDIAVEWESNGQPENNYKTTPPVLDSDGSFFLYSKLTVDKSRWQQGNVFSCSVMHEALHNRYTQKSLSLSP
light: DIVMTQSPLSLPVTPGEPASISCRSSQSLVHSNRNTYLHWYQQKPGQAPRLLIYKVSNRFWGVPDRFSGSGSGTDFTLKISRVEAEDVGVYYCGQGTQVPYTFGQGTKLEIKRTVAAPSVFIFPPSDEQLKSGTASVVCLLNNFYPREAKVQWKVDNALQSGNSQESVTEQDSKDSTYSLSSTLTLSKADYEKHKVYACEVTHQGLSSPVTKSFNRGEC
notes: single-arm (one Fab)
B5: H0610-G1dh/none-Hi-Kn010G3/L0149-k0 (antibody, human IgG1, kappa)
heavy: not shown
chain: EPKSSDKTHTCPPCPAPELLGGPSVFLFPPKPKDTLMISRTPEVTCVVVDVSHEDPEVKFNWYVDGVEVHNAKTKPREEQYNSTYRVVSVLTVLHQDWLNGKEYKCKVSNKALPAPIEKTISKAKGQPREPQVCTLPPSRDELTKNQVSLWCLVKGFYPSDIAVEWESNGQPENNYKTTPPVLDSDGSFFLYSKLTVDKSRWQQGNVFSCSVMHEALHNRYTQKSLSLSP
light: DIVMTQSPLSLPVTPGEPASISCRSSQSLVHSNRNTYLHWYQQKPGQAPRLLIYKVSNRFSGVPDRFSGSGSGTDFTLKISRVEAEDVGVYYCAQGTQVPYTFGQGTKLEIKRTVAAPSVFIFPPSDEQLKSGTASVVCLLNNFYPREAKVQWKVDNALQSGNSQESVTEQDSKDSTYSLSSTLTLSKADYEKHKVYACEVTHQGLSSPVTKSFNRGEC
notes: single-arm (one Fab)
B6: H0610-G1dh/none-Hi-Kn010G3/L0151-k0 (antibody, human IgG1, kappa)
heavy: not shown
chain: EPKSSDKTHTCPPCPAPELLGGPSVFLFPPKPKDTLMISRTPEVTCVVVDVSHEDPEVKFNWYVDGVEVHNAKTKPREEQYNSTYRVVSVLTVLHQDWLNGKEYKCKVSNKALPAPIEKTISKAKGQPREPQVCTLPPSRDELTKNQVSLWCLVKGFYPSDIAVEWESNGQPENNYKTTPPVLDSDGSFFLYSKLTVDKSRWQQGNVFSCSVMHEALHNRYTQKSLSLSP
light: DIVMTQSPLSLPVTPGEPASISCRSSQSLVHSNRNTYLHWYQQKPGQAPRLLIYKVSNRFSGVPDRFSGSGSGTDFTLKISRVEAEDVGVYYCEQGTQVPYTFGQGTKLEIKRTVAAPSVFIFPPSDEQLKSGTASVVCLLNNFYPREAKVQWKVDNALQSGNSQESVTEQDSKDSTYSLSSTLTLSKADYEKHKVYACEVTHQGLSSPVTKSFNRGEC
notes: single-arm (one Fab)
B7: H0610-G1dh/none-Hi-Kn010G3/L0152-k0 (antibody, human IgG1, kappa)
heavy: not shown
chain: EPKSSDKTHTCPPCPAPELLGGPSVFLFPPKPKDTLMISRTPEVTCVVVDVSHEDPEVKFNWYVDGVEVHNAKTKPREEQYNSTYRVVSVLTVLHQDWLNGKEYKCKVSNKALPAPIEKTISKAKGQPREPQVCTLPPSRDELTKNQVSLWCLVKGFYPSDIAVEWESNGQPENNYKTTPPVLDSDGSFFLYSKLTVDKSRWQQGNVFSCSVMHEALHNRYTQKSLSLSP
light: DIVMTQSPLSLPVTPGEPASISCRSSQSLVHSNRNTYLHWYQQKPGQAPRLLIYKVSNRFSGVPDRFSGSGSGTDFTLKISRVEAEDVGVYYCFQGTQVPYTFGQGTKLEIKRTVAAPSVFIFPPSDEQLKSGTASVVCLLNNFYPREAKVQWKVDNALQSGNSQESVTEQDSKDSTYSLSSTLTLSKADYEKHKVYACEVTHQGLSSPVTKSFNRGEC
notes: single-arm (one Fab)
B8: H0610-G1dh/none-Hi-Kn010G3/L0154-k0 (antibody, human IgG1, kappa)
heavy: not shown
chain: EPKSSDKTHTCPPCPAPELLGGPSVFLFPPKPKDTLMISRTPEVTCVVVDVSHEDPEVKFNWYVDGVEVHNAKTKPREEQYNSTYRVVSVLTVLHQDWLNGKEYKCKVSNKALPAPIEKTISKAKGQPREPQVCTLPPSRDELTKNQVSLWCLVKGFYPSDIAVEWESNGQPENNYKTTPPVLDSDGSFFLYSKLTVDKSRWQQGNVFSCSVMHEALHNRYTQKSLSLSP
light: DIVMTQSPLSLPVTPGEPASISCRSSQSLVHSNRNTYLHWYQQKPGQAPRLLIYKVSNRFSGVPDRFSGSGSGTDFTLKISRVEAEDVGVYYCIQGTQVPYTFGQGTKLEIKRTVAAPSVFIFPPSDEQLKSGTASVVCLLNNFYPREAKVQWKVDNALQSGNSQESVTEQDSKDSTYSLSSTLTLSKADYEKHKVYACEVTHQGLSSPVTKSFNRGEC
notes: single-arm (one Fab)
B9: H0610-G1dh/none-Hi-Kn010G3/L0155-k0 (antibody, human IgG1, kappa)
heavy: not shown
chain: EPKSSDKTHTCPPCPAPELLGGPSVFLFPPKPKDTLMISRTPEVTCVVVDVSHEDPEVKFNWYVDGVEVHNAKTKPREEQYNSTYRVVSVLTVLHQDWLNGKEYKCKVSNKALPAPIEKTISKAKGQPREPQVCTLPPSRDELTKNQVSLWCLVKGFYPSDIAVEWESNGQPENNYKTTPPVLDSDGSFFLYSKLTVDKSRWQQGNVFSCSVMHEALHNRYTQKSLSLSP
light: DIVMTQSPLSLPVTPGEPASISCRSSQSLVHSNRNTYLHWYQQKPGQAPRLLIYKVSNRFSGVPDRFSGSGSGTDFTLKISRVEAEDVGVYYCLQGTQVPYTFGQGTKLEIKRTVAAPSVFIFPPSDEQLKSGTASVVCLLNNFYPREAKVQWKVDNALQSGNSQESVTEQDSKDSTYSLSSTLTLSKADYEKHKVYACEVTHQGLSSPVTKSFNRGEC
notes: single-arm (one Fab)
B10: H0610-G1dh/none-Hi-Kn010G3/L0157-k0 (antibody, human IgG1, kappa)
heavy: not shown
chain: EPKSSDKTHTCPPCPAPELLGGPSVFLFPPKPKDTLMISRTPEVTCVVVDVSHEDPEVKFNWYVDGVEVHNAKTKPREEQYNSTYRVVSVLTVLHQDWLNGKEYKCKVSNKALPAPIEKTISKAKGQPREPQVCTLPPSRDELTKNQVSLWCLVKGFYPSDIAVEWESNGQPENNYKTTPPVLDSDGSFFLYSKLTVDKSRWQQGNVFSCSVMHEALHNRYTQKSLSLSP
light: DIVMTQSPLSLPVTPGEPASISCRSSQSLVHSNRNTYLHWYQQKPGQAPRLLIYKVSNRFSGVPDRFSGSGSGTDFTLKISRVEAEDVGVYYCNQGTQVPYTFGQGTKLEIKRTVAAPSVFIFPPSDEQLKSGTASVVCLLNNFYPREAKVQWKVDNALQSGNSQESVTEQDSKDSTYSLSSTLTLSKADYEKHKVYACEVTHQGLSSPVTKSFNRGEC
notes: single-arm (one Fab)
B11: H0610-G1dh/none-Hi-Kn010G3/L0160-k0 (antibody, human IgG1, kappa)
heavy: not shown
chain: EPKSSDKTHTCPPCPAPELLGGPSVFLFPPKPKDTLMISRTPEVTCVVVDVSHEDPEVKFNWYVDGVEVHNAKTKPREEQYNSTYRVVSVLTVLHQDWLNGKEYKCKVSNKALPAPIEKTISKAKGQPREPQVCTLPPSRDELTKNQVSLWCLVKGFYPSDIAVEWESNGQPENNYKTTPPVLDSDGSFFLYSKLTVDKSRWQQGNVFSCSVMHEALHNRYTQKSLSLSP
light: DIVMTQSPLSLPVTPGEPASISCRSSQSLVHSNRNTYLHWYQQKPGQAPRLLIYKVSNRFSGVPDRFSGSGSGTDFTLKISRVEAEDVGVYYCTQGTQVPYTFGQGTKLEIKRTVAAPSVFIFPPSDEQLKSGTASVVCLLNNFYPREAKVQWKVDNALQSGNSQESVTEQDSKDSTYSLSSTLTLSKADYEKHKVYACEVTHQGLSSPVTKSFNRGEC
notes: single-arm (one Fab)
B12: H0610-G1dh/none-Hi-Kn010G3/L0161-k0 (antibody, human IgG1, kappa)
heavy: not shown
chain: EPKSSDKTHTCPPCPAPELLGGPSVFLFPPKPKDTLMISRTPEVTCVVVDVSHEDPEVKFNWYVDGVEVHNAKTKPREEQYNSTYRVVSVLTVLHQDWLNGKEYKCKVSNKALPAPIEKTISKAKGQPREPQVCTLPPSRDELTKNQVSLWCLVKGFYPSDIAVEWESNGQPENNYKTTPPVLDSDGSFFLYSKLTVDKSRWQQGNVFSCSVMHEALHNRYTQKSLSLSP
light: DIVMTQSPLSLPVTPGEPASISCRSSQSLVHSNRNTYLHWYQQKPGQAPRLLIYKVSNRFSGVPDRFSGSGSGTDFTLKISRVEAEDVGVYYCVQGTQVPYTFGQGTKLEIKRTVAAPSVFIFPPSDEQLKSGTASVVCLLNNFYPREAKVQWKVDNALQSGNSQESVTEQDSKDSTYSLSSTLTLSKADYEKHKVYACEVTHQGLSSPVTKSFNRGEC
notes: single-arm (one Fab)
B13: H0610-G1dh/none-Hi-Kn010G3/L0163-k0 (antibody, human IgG1, kappa)
heavy: not shown
chain: EPKSSDKTHTCPPCPAPELLGGPSVFLFPPKPKDTLMISRTPEVTCVVVDVSHEDPEVKFNWYVDGVEVHNAKTKPREEQYNSTYRVVSVLTVLHQDWLNGKEYKCKVSNKALPAPIEKTISKAKGQPREPQVCTLPPSRDELTKNQVSLWCLVKGFYPSDIAVEWESNGQPENNYKTTPPVLDSDGSFFLYSKLTVDKSRWQQGNVFSCSVMHEALHNRYTQKSLSLSP
light: DIVMTQSPLSLPVTPGEPASISCRSSQSLVHSNRNTYLHWYQQKPGQAPRLLIYKVSNRFSGVPDRFSGSGSGTDFTLKISRVEAEDVGVYYCYQGTQVPYTFGQGTKLEIKRTVAAPSVFIFPPSDEQLKSGTASVVCLLNNFYPREAKVQWKVDNALQSGNSQESVTEQDSKDSTYSLSSTLTLSKADYEKHKVYACEVTHQGLSSPVTKSFNRGEC
notes: single-arm (one Fab)

target: T1, soluble human GPC3 (human, UniProt P51654 25-563, limits assumed); experiment: SPR (Biacore), soluble human GPC3
T1 construct: soluble human GPC3 as analyte; also called glypican 3
T1 sequence (P51654 other isoform, or with tags, fused parts or gaps limits assumed, form in doubt): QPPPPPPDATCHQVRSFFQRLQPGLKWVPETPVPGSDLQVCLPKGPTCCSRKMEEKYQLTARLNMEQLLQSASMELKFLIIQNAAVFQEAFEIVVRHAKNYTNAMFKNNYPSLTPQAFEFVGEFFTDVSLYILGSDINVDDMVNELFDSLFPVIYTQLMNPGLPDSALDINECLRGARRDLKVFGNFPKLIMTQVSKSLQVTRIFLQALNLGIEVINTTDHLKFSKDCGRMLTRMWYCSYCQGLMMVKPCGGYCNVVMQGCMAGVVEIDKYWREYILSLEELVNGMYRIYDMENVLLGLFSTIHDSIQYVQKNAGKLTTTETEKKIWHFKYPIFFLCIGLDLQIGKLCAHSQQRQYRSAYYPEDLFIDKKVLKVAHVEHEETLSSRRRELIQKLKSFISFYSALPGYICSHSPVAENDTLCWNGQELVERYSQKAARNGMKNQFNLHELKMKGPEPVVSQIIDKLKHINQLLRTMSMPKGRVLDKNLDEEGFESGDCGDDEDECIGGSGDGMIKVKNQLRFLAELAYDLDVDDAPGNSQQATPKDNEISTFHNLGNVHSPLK

Going from B1 to B2, the Kd falls from 3.86 nM to 0.573 nM (6.7-fold). The second binds more tightly here.

B3 and B4 are within 1.5-fold of each other in Kd: 2.66 nM for the first, 3.28 nM for the second.

Compared with B5, B6 is 1.7-fold lower in Kd: 2.16 nM for the first, 1.25 nM for the second. The second binds more tightly here.

Compared with B7, B8 is 2.3-fold lower in Kd: 2.36 nM for the first, 1.01 nM for the second.

Compared with B9, B10 is 2-fold higher in Kd: 1.28 nM for the first, 2.6 nM for the second.

Compared with B11, B12 is 2.2-fold lower in Kd: 2.12 nM for the first, 0.973 nM for the second. The second binds more tightly here.

For B13, the Kd was 3.38 nM.
